Results reported in patent publication US20210107983A1 (Boehringer Ingelheim, published 2021).
Substitutions are numbered along the chain they refer to.

B1: B7H6#9/CD3#1 (bispecific antibody, human IgG1, kappa, lambda, L234A L235A)
chain 1: DIVLTQSPVSLAVSLGQRATISCRASESVDNFGVSFMNWFQQKPGQPPKLLIYAASNQGSGVPARFSGSGSGTDFSLNIHPLEEDDTAMYFCQQSKEVPWTFGGGTRLEIKRTVAAPSVFIFPPSDEQLKSGTASVVCLLNNFYPREAKVQWKVDNALQSGNSQESVTEQDSKDSTYSLSSTLTLSKADYEKHKVYACEVTHQGLSSPVTKSFNRGECGGGGSEGKSSGSGSESKSTEGKSSGSGSESKSTGGGGSQVQLQQPGAEMVRPGSSVKLSCKASDYTFTHYWIHWVKQRPLEGLEWIGIIGPSDNEIHYNQDFKDKATLTVDKSSNTAYLHLNSLTSEDSAVYYCARQIISMVVGTEYFDVWGTGTTVTVSSASTKGPSVFPLAPSSKSTSGGTAALGCLVKDYFPEPVTVSWNSGALTSGVHTFPAVLQSSGLYSLSSVVTVPSSSLGTQTYICNVNHKPSNTKVDKRVEPKSCDKTHTCPPCPAPEAAGGPSVFLFPPKPKDTLMISRTPEVTCVVVDVSHEDPEVKFNWYVDGVEVHNAKTKPREEQYNSTYRVVSVLTVLHQDWLNGKEYKCKVSNKALPAPIEKTISKAKGQPREPQVYTLPPSREEMTKNQVSLWCLVKGFYPSDIAVEWESNGQPENNYKTTPPVLDSDGSFFLYSKLTVDKSRWQQGNVFSCSVMHEALHNHYTQKSLSLSPG
chain 2: EAVVTQEPSLTVSPGGTVTLTCRSSTGAVTTSNYANWVQEKPGQLPRGLIGGTNKRAPWVPARFSGSLLGGKAALTLSGAQPEDEAEYFCALWYSNLWVFGGGTKLTVLGQPKAAPSVTLFPPSSEELQANKATLVCLISDFYPGAVKVAWKADGSPVNTGVETTTPSKQSNNKYAASSYLSLTPEQWKSHRSYSCQVTHEGSTVEKTVAPAECSGGGGSEGKSSGSGSESKSTEGKSSGSGSESKSTGGGGSEVQLVESGGGLVQPGGSLKLSCAASGFTFNTYAMNWVRQAPGKGLEWVARIRSKYNNYATYYADSVKDRFTISRDDSKNTAYLQMNNLKTEDTAVYYCVRHGNFGNSYVSWFAYWGQGTLVTVSAASTKGPSVFPLAPSSKSTSGGTAALGCLVKDYFPEPVTVSWNSGALTSGVHTFPAVLQSSGLYSLSSVVTVPSSSLGTQTYICNVNHKPSNTKVDKRVEPKSCDKTHTCPPCPAPEAAGGPSVFLFPPKPKDTLMISRTPEVTCVVVDVSHEDPEVKFNWYVDGVEVHNAKTKPREEQYNSTYRVVSVLTVLHQDWLNGKEYKCKVSNKALPAPIEKTISKAKGQPREPQVYTLPPSREEMTKNQVSLSCAVKGFYPSDIAVEWESNGQPENNYKTTPPVLDSDGSFFLVSKLTVDKSRWQQGNVFSCSVMHEALHNRFTQKSLSLSPG
notes: scFab-Fc heterodimer, one B7H6 chain and one CD3 chain
B2: B7H6#14/CD3#2 (bispecific antibody, human IgG1, kappa, L234A L235A)
chain 1: DIQMTQSPSSLSASVGDRVTITCKASQNVGKYVAWYQQKPGKAPKSLIYSASNRYDGVPSRFSGSGSGTDFTLTISSLQPEDFATYFCQQYISYPLTFGAGTKLEIKRTVAAPSVFIFPPSDEQLKSGTASVVCLLNNFYPREAKVQWKVDNALQSGNSQESVTEQDSKDSTYSLSSTLTLSKADYEKHKVYACEVTHQGLSSPVTKSFNRGECGGGGSEGKSSGSGSESKSTEGKSSGSGSESKSTGGGGSQVQLVQSGAEVKKPGASVKVSCKASGYTFTNYWMNWMKQAPGQGLEWIGGIYLNGDSTDYNEKFKGKVTMTVDTSTSTVYMELSSLRSEDTAVYYCTRRGDYFGDFWGQGTLVTVSSASTKGPSVFPLAPSSKSTSGGTAALGCLVKDYFPEPVTVSWNSGALTSGVHTFPAVLQSSGLYSLSSVVTVPSSSLGTQTYICNVNHKPSNTKVDKRVEPKSCDKTHTCPPCPAPEAAGGPSVFLFPPKPKDTLMISRTPEVTCVVVDVSHEDPEVKFNWYVDGVEVHNAKTKPREEQYNSTYRVVSVLTVLHQDWLNGKEYKCKVSNKALPAPIEKTISKAKGQPREPQVYTLPPSREEMTKNQVSLWCLVKGFYPSDIAVEWESNGQPENNYKTTPPVLDSDGSFFLYSKLTVDKSRWQQGNVFSCSVMHEALHNHYTQKSLSLSPG
chain 2: not shown
notes: scFab-Fc heterodimer
B3: B7H6#23/CD3#4 (bispecific antibody, human IgG1, kappa, L234A L235A)
chain 1: B2 chain 1 with G57A, N283S, N306S, D308E
chain 2: not shown
notes: scFab-Fc heterodimer
B4: B7H6#23/CD3#3 (bispecific antibody, human IgG1, kappa, L234A L235A)
chain 1: B2 chain 1 with G57A, N283S, N306S, D308E
chain 2: not shown
notes: scFab-Fc heterodimer
B5: B7H6#23/CD3#5 (bispecific antibody, human IgG1, kappa, L234A L235A)
chain 1: B2 chain 1 with G57A, N283S, N306S, D308E
chain 2: not shown
notes: scFab-Fc heterodimer
B6: B7H6#14/CD3#4 (bispecific antibody, human IgG1, kappa, L234A L235A)
chain 1: B2 chain 1
chain 2: not shown
notes: scFab-Fc heterodimer

The binders below were run against T1, Fc-His-tagged human B7H6 ECD (human) (assay: ELISA, plate coated with Fc-His-tagged human B7H6 ECD, anti-human IgG F(ab')2-peroxidase, TMB).
T1 construct: also called huB7H6-ECD-Fc-His; recombinant human B7H6 ECD
Procedure: To assess binding of B7H6/CD3 binding proteins to recombinant human Fc-His-tagged B7H6 ECD and human Fc-His-tagged Ala-mutated B7H6 extracellular proteins as described in Example 3, MediSorp™ plates (Nunc, 467320) were coated with […] recombinant proteins overnight at 4° C. The next day, plates were blocked with 0.5% bovine serum albumin (BSA) in phosphate buffered saline (PBS) for 1 hour at room temperature (RT). Subsequently plates were washed with […] containing 0.05% TWEEN®20 viscous liquid and B7H6/CD3 binding proteins were incubated at concentrations ranging from 0.00001 to 10 μg/ml. After an additional washing step, bound B7H6/CD3 binding proteins were detected by a peroxidase conjugated goat anti-human IgG F(ab′)₂-specific secondary antibody (Jackson Immunoresearch) and visualized by TMB substrate solution (Bender Med Systems).

Binder | EC50 (read off the curve) [mg/L]
B1 | ~0.05

What follows are binders tested against T2, chicken egg white lysozyme (chicken, UniProt P00698 19-147) (assay: SPR, 1 µM binder over immobilized lysozyme).
T2 construct: unrelated positively charged protein, amine-coupled to the chip; also called Lysozyme (positive)
T2 sequence (P00698 19-147): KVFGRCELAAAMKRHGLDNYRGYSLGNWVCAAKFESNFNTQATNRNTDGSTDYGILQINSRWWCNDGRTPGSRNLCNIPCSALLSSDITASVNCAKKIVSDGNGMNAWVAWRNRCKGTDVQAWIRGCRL
Outline: (§1)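 Non-specific binding tested with samples at 1 μM in HBS-EP at 25 °C, 5 μL/min, over lysozyme or trypsin inhibitor amine-coupled to CM5 chip (3000–5000 RU). Association 10 min, dissociation 15 min.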

Binder | Non-specific binding (RU)
B2 | 11.2
B3 | 6.8
B4 | 18.9
B5 | 15
B6 | 8.8

The binders below were run against T3, Human CD3 E+G HuFc-6xHis (human) (assay: SPR, CD3E+G-hFc immobilized, binder analyte).
T3 construct: also called HuCD3E+G-hFc; huCD3
T3 sequence (chain, as listed by the source limits assumed): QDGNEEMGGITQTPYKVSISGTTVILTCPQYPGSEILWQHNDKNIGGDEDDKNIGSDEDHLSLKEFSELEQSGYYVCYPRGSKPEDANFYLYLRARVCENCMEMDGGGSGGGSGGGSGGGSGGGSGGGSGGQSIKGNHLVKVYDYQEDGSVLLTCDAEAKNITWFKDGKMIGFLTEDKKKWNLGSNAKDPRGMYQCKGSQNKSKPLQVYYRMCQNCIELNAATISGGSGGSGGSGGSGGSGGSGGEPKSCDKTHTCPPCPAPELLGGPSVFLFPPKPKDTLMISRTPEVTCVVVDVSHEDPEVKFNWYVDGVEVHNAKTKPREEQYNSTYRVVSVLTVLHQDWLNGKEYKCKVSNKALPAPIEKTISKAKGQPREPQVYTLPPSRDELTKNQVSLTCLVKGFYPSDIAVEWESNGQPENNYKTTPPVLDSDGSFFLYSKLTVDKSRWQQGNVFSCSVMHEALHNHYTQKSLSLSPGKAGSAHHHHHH
Outline: (§2)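 On a ProteOn XPR36, human and cyno CD3E+G-hFc were amine-coupled to a GLM chip at 0.4, 0.2 and 0.1 μg/mL in 10 mM acetate pH 4.5. B7H6/CD3 binding protein (0–100 nM) flowed in HBS-EP+ at 30 μL/min, with 300 s association and 600 s dissociation. Interspot and blank responses were subtracted.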

Binder | Kd [nM]
B2 | 16.9
B3 | 3.8
B4 | 13.8
B5 | 2.8
B6 | 7.6

The binders below were run against T4, Cyno CD3 E+G HuFc-6xHis (cynomolgus monkey) (assay: SPR, CD3E+G-hFc immobilized, binder analyte).
T4 construct: also called CyCD3E+G-hFc; cyCD3
T4 sequence (chain, as listed by the source limits assumed): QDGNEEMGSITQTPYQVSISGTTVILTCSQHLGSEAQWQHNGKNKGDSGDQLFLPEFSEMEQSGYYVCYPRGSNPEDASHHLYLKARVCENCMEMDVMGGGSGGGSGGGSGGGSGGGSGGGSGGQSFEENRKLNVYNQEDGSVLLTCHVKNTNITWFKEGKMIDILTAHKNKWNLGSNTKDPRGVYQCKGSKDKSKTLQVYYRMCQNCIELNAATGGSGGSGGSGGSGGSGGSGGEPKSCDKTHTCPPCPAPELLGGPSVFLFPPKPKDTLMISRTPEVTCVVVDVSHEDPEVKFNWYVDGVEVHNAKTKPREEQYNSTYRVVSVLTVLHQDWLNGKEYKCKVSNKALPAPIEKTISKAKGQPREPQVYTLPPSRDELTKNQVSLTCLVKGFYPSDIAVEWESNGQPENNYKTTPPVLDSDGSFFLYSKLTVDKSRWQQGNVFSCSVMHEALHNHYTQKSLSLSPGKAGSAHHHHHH
Outline: as §2

Binder | Kd [nM]
B2 | 17.7
B3 | 3.6
B4 | 11.9
B5 | 3.7
B6 | 8.5

Target: T5, Cyno B7H6-His (cynomolgus monkey)
T5 construct: also called CyB7H6; cyB7-H6
T5 chain: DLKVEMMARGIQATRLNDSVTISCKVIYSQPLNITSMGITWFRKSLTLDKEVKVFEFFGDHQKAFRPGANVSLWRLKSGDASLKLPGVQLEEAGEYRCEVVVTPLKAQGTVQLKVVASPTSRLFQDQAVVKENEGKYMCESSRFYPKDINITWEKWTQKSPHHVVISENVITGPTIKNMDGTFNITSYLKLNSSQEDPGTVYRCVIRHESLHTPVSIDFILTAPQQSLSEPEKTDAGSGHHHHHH
Experiment: ratio of SPR KDs cyno/human

Binder | cy/hu B7-H6
B2 | 0.9
B3 | 1
B4 | 0.9
B5 | 0.9
B6 | 0.8

These binders were tested against T4, Cyno CD3 E+G HuFc-6xHis (assay: ratio of SPR KDs cyno/human).

Binder | cy/hu CD3
B2 | 1
B3 | 0.9
B4 | 0.9
B5 | 1.3
B6 | 1.1

What follows are binders tested against T6, Human B7H1 (human, UniProt Q9NZQ7 20-239) (assay: SPR, binder captured on Protein A/G, HuB7H1 analyte).
T6 construct: also called HuB7H1; huB7-H1
T6 sequence (Q9NZQ7 other isoform, or with tags, fused parts or gaps limits assumed): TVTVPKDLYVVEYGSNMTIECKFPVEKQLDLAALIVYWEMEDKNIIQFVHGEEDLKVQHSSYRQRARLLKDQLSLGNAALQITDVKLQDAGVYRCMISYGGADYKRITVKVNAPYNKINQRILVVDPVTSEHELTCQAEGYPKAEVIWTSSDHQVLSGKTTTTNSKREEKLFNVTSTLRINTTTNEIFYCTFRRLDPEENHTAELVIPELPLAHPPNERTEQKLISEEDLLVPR
Outline: (§3)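 B7H6/CD3 binder captured (~700 RU) on a Protein A/G CM5 surface in HBS-EP+. Human or cyno B7H6 injected at 0–100 nM and human B7H1 at 0 nM and 1 μM, 300 s association and 1200 s dissociation. Data double-referenced against the reference flow cell and blank.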

Binder | binding result
B2 | no binding (tested: 1 µM)
B3 | no binding (tested: 1 µM)
B4 | no binding (tested: 1 µM)
B5 | no binding (tested: 1 µM)
B6 | no binding (tested: 1 µM)

Target: T5, Cyno B7H6-His
Experiment: SPR, binder captured on Protein A/G, B7H6 analyte
Outline: as §3

Binder | Kd [nM]
B2 | 1
B3 | 1.7
B4 | 1.9
B5 | 1.9
B6 | 1.1

Each binder was assayed against T7, CD3 on human T-cells (human, UniProt P07766;P09693) (assay: flow cytometry on purified human T-cells, PE anti-human secondary antibody).
T7 construct: endogenous, on the surface of purified T-cells; also called human T-cells expressing CD3
T7 sequence (P07766 23-207, chain 1 of 2): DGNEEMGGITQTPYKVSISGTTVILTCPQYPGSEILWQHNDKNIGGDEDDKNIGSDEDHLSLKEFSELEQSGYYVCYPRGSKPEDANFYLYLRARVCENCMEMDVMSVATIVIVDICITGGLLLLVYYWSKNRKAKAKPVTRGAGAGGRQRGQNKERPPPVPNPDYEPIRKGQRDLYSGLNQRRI
T7 sequence (P09693 23-182, chain 2 of 2): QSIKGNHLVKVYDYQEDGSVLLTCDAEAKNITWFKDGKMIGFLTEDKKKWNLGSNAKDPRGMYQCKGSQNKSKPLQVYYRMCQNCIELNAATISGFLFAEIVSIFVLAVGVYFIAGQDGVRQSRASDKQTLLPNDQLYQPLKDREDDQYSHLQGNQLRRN
Procedure: T-cells were isolated by negative selection using the Pan T Cell Isolation Kit II (Miltenyi Biotec #130-091-156). In brief, cells were resuspended in 40 μl buffer PBS/0.5% BSA (Gibco ref #041-94553 M)/2 mM EDTA (Invitrogen ref #15575-038) per 10 Mio cells and incubated with 10 μl of Biotin-Antibody cocktail per 10 Mio cells for 5 min at 4° C. Subsequently, 30 μl buffer and 20 μl anti-biotin MACS® MicroBeds/10 million cells were added and incubated for 10 min at 4° C. Subsequently the mixture was placed in a pre-rinsed 25LS column (Miltenyi Biotec #130-042-401) in the magnetic field of suitable MACS® microbeads separator (Miltenyi Biotec). Flow-through was collected and washed in assay medium.
T-cells were stained with increasing concentrations of two-step purified B7H6/CD3 binding proteins in FACS buffer (PBS/0.5% BSA/0.05% sodium azide). Bound molecules were detected with PE-conjugated anti-human secondary antibody (Sigma-Aldrich, #P8047).

Binder | binding result
B2 | binds
B3 | binds
B4 | binds
B5 | binds
B6 | binds

Each binder was assayed against T8, human B7H6 on HCT-15 cells (human, UniProt Q68D85 25-454) (assay: cell-based or functional assay).
T8 sequence (looked up): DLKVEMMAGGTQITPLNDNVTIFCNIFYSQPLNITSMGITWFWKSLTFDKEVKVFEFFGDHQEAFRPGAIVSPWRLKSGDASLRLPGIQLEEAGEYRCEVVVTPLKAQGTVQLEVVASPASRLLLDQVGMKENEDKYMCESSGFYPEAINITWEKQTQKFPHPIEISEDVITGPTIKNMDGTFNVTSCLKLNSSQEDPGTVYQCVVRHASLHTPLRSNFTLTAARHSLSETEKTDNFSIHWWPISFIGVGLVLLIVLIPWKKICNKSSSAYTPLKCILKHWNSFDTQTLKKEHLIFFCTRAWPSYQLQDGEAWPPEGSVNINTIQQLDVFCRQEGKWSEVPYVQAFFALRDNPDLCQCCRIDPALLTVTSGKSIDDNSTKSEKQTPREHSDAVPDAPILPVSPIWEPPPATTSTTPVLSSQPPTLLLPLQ

Binder | EC50 [nM], 72 hour cytotoxicity assay, non-stimulated T-cells (Donor #1) as effector cells, HCT-15 cells as target cells [nM]
B1 | 0.44

Each binder was assayed against T9, trypsin inhibitor from Glycine max soybean (Glycine max (soybean)) (assay: SPR, 1 µM binder over immobilized trypsin inhibitor).
T9 construct: unrelated negatively charged protein, amine-coupled to the chip
T9 sequence (P01070 25-205): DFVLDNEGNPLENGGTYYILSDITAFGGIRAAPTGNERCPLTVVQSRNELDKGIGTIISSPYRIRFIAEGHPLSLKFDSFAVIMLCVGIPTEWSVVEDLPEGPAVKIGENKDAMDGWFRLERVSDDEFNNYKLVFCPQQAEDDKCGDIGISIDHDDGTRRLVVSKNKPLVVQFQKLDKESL
Outline: as §1

Binder | Non-specific binding (RU)
B2 | 12.2
B3 | 20.7
B4 | 38.7
B5 | 115
B6 | 22.6
